Target: the molecule itself
Assay: crystal structure; TetR co-crystallised with RNA aptamer K1 (2.7 Å) or K2 (2.9 Å); complex purified by gel filtration in 20 mM Tris-HCl pH 8.0, 150 mM NaCl, 5 mM MgCl2; sitting-drop vapor diffusion at 20°C

B1: TetR type BD' (TetR (B1–B187:D188–D208; C68S, C88N, C121T and C144S)) (natural protein)
chain: MSRLDKSKVINSALELLNEVGIEGLTTRKLAQKLGVEQPTLYWHVKNKRALLDALAIEMLDRHHTHFSPLEGESWQDFLRNNAKSFRNALLSHRDGAKVHLGTRPTEKQYETLENQLAFLTQQGFSLENALYALSAVGHFTLGSVLEDQEHQVAKEERETPTTDSMPPLLRQAIELFDHQGAEPAFLHGLESLIRGFEVQLTALLQIV
notes: TetR class B, residues 1-187 of the cysteine-free chimeric TetR type BD'; TetR class D, residues 188-208 of the chimeric TetR type BD'; homodimer; also called Tet repressor; wild-type TetR; source: purified
- stoichiometry N: 2
